# Like-named read-outs stand apart in the source and are kept apart here.
# B1: A483: amino acids 483 to 633 of SEQ ID NO: 1 (IpaA), containing IpaA VBS1, VBS2 and VBS3 (protein, listed as Shigella flexneri)
# chain: GDTYLTRETIFEASKKVTNSLSNLISLIGTKSGTQERELQEKSKDITKSTTEHRINNKLKVTDANIRNYVTETNADTIDKNHAIYEKAKEVSSALSKVLSKIDDTSAELLTDDISDLKNNNDITAENNNIYKAAKDVTTSLSKVLKNINKD
# modifications: A483 / IpaA (483-633)
# B2: A524: IpaA 524-633, containing only IpaA VBS1 and VBS2 (protein, listed as Shigella flexneri)
# chain: KSKDITKSTTEHRINNKLKVTDANIRNYVTETNADTIDKNHAIYEKAKEVSSALSKVLSKIDDTSAELLTDDISDLKNNNDITAENNNIYKAAKDVTTSLSKVLKNINKD
# modifications: A524 / IpaA (524-633)
# notes: IpaA 524-633, containing only IpaA VBS1 and VBS2
# Key:
# [1] = tested on: melanocytes; experiment: Time lapse cell migration; format: cell-based; conditions: 6 movies per sample, preliminary
# [2] = biological target: talin H1-H4 (Homo sapiens, UniProt Q9Y490); experiment: Isothermal titration calorimetry; format: binding; conditions: 25° C.; for ΔG free enthalpy / ΔH enthalpy / −TΔS entropic contribution / Kd: ITC; for Kd: read-out: KD (affinity constant)
# talin H1-H4, sequence (Q9Y490 482-636): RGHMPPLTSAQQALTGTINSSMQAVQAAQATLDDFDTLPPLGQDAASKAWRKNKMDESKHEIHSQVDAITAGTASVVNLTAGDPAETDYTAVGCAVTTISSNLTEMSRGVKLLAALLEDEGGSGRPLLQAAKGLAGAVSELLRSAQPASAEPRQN
# Experimental: Vinculin, IpaA proteins and peptides were extensively dialyzed in binding buffer (25 mM Tris pH 7.4, 100 mM NaCl and 1 mM β-Mercaptoethanol). The final concentration of all proteins/peptides was measured using a BCA test (Thermo Scientific). Talin-IpaA binding was measured by microcalorimetry using an ITC200 calorimeter (MicroCal) at 25° C. 200 μL of 20-100 μM of talin H1-H4 protein was added to the cell and binding in the presence of different concentrations of IpaA VBS1, VBS2 or VBS3 peptides was measured. In other experiments, 200 μL of a 16 μM equimolar mix of A483:HVD1 was incubated for one hour at room temperature prior to addition to the cell. Binding to talin H1-H4 (100 μM) was measured. Typically, 20-40 injections of 2 μL of ligand were made with intervals of 320 seconds between each addition, with a reference power of 12 μcal/sec. Data were analyzed using the MicroCal software provided by manufacturer.
# [3] = tested on: MEF cells; experiment: TIRF microscopy of focal adhesion markers after ROCK inhibitor Y-27632; format: cell-based; conditions: Paxillin, Vinculin, VASP; after Rho-kinase inhibitor Y-27632; preliminary
# Source text: FIG. 21 is a set of images showing that IpaA prevents the disassembly of focal adhesions induced by the relaxation of the actomyosin contraction. MEF cells were transfected with focal adhesion proteins Paxillin-Cherry (PAX), Vinculin-Cherry (VIN) or VASP-Cherry (VASP). CTRL: single transfection; A483: cells were co-transfected with GFP-A483. The intensity of focal adhesion proteins (visualized as white dots) is shown at the indicated time points in seconds after the addition of the ROCK inhibitor Y-27632 by TIRF microscopy. A483 prevents the destabilization of FA markers induced by the ROCK inhibitor observed in control cells.
# In preliminary experiments, we have analyzed the role of actomyosin contraction on the recruitment of FA markers linked to the supra-activation of vinculin, by treating cells with the Rho-kinase inhibitor Y-27632. The disappearance of markers from FAs was analyzed following in real-time using total internal reflection (TIRF) microscopy. […] Strikingly, VASP, a marker of mature FAs, was also stabilized by A483, while previous studies had shown that this FA marker was not stabilized by active vinculin, deficient for head-tail intra-molecular interaction.
# [4] = tested on: C2.7 mice myoblasts cells; experiment: Cell adhesion kinetics on fibronectin-coated surfaces; format: cell-based
# Experimental: C2.7 mice myoblasts cells were seeded at 2.5×10^5 cells in a 10 cm cell culture petri dish (TPP). Cells were transfected with 15 μg of pcDNA3.1 NT GFP-A483 plasmid, with 45 μL JetPEI transfection reagent (Polyplus) overnight following manufacturer's recommendations. Control and transfected cells were detached and washed in a large volume of DMEM/Hepes (ref. 21063-045, Life Technologies) with 0.2% BSA and 50 ng/mL LPA (ref. L7260, Sigma-Aldrich) without FCS. Some 15,000 control/IpaA cells per well were seeded (DMEM/BSA/LPA, no FCS) in 24-well plates added with 5 mm rounded coverslips coated with 25 μg/mL fibronectin and blocked with 2% BSA-PBS 1×. Plates containing cells were centrifuged at 1000 g for 2 minutes, incubated at 37° C. and fixed (3.7% PFA-PBS) at different time points. Coverslips were stained with an anti-vinculin antibody+Phalloidin as described before (Immunostaining) or with a solution containing 1/200 DAPI (1 mg/mL) for number-of-cells adhesion tests. All coverslips were washed and mounted on slides using Dako mounting medium (Invitrogen) and observed using a confocal microscopy with rotary discs (Roper Scientific®).
# To confirm this latter result at the scale of a whole cell population, we performed assays where cells, resuspended by trypsinization, were allowed to adhere for define amounts of time on Fn-coated substrates before washing. Then the number of cells that remained attached to the substrate was measured.
# [5] = tested on: melanocytes; experiment: Matrigel invasion assay; format: cell-based; conditions: 24-hour incubation, three independent experiments
# Experimental: Cells were transfected by GFP-A524, GFP-A483 or Mock-transfected (without DNA, as a control).
# Cells were further trypsinized, collected, and deposited in a matrigel insert. Following a 24-hour incubation, the matrigel was remove, the membrane was fixed and processed for fluorescence straining of cell nuclei with DAPI. Cells that transmigrated across the matrigel were scored (FIG. 24B).
# [6] = tested on: C2.7 myoblastic cells; experiment: Plating on fibronectin-coated PDMS membranes of different stiffness; format: cell-based; conditions: substrate stiffness 1.5 kPa and 15 kPa
# Experimental: As previously observed, A483 induced the formation of large adhesion structures in C2.7 cells (FIG. 20A). While A483 transfectants induced a spectacular 5.6-fold increase in the number of adherent cells after 60 seconds of incubation, this increase was reduced to 1.3-fold when adhesion was tested after 30 min. These findings were quantified by measuring the resistance to shear stress of cells under flow as a function of the incubation time with the substrate in microfluidic chambers (FIG. 20B). Thus, through its direct binding via IpaA VBS3/TBS or indirect unveiling of binding sites on vinculin “supra-activated”, A483 may “by-pass” mechanosensing normally associated with the initial steps of cell adhesions' formation. While we cannot rule out the possibility that A483 induces an original ex-nihilo adhesion structure, our current results rather argue that it allows the bypassing of actomyosin-dependent mechanosensing steps that would lead to vinculin supra-activation at high actomyosin contraction forces. To further test this, we plated the C2.7 myoblastic cells on various fibronectin-coated PDMS membranes showing different stiffness. As expected, at low substrate stiffness (1.5 kPa), control cells remained spread and isolated, whereas at high substrate stiffness (15 kPa), cells differentiated into myotubes (FIG. 20C).
# [7] = tested on: C2.7 mice myoblasts cells; experiment: Immunostaining of focal adhesions in transfected cells; format: cell-based; conditions: cells plated for 16 hours
# Experimental: C2.7 mice myoblasts cells were seeded at 2.5×10^4 cells in 5 mm rounded cell culture coverslips. Cells were transfected with 3 μg of pcDNA3.1 NT GFP-A483 plasmid, with 6 μL JetPEI transfection reagent (Polyplus) overnight following manufacturer's recommendations. Control and GFP-A483 transfected cells were fixed (3.7% PFA-PBS), permeabilized (0.1% Triton X-100, Sigma-Aldrich) and incubated with a 1/200 monoclonal m11.5 anti-vinculin antibody (ref. V4505, Sigma-Aldrich). Coverslips were washed and incubated with a 1/200 anti-mouse secondary antibody coupled to Alexa 546 (Jackson Research) and 1/200 Phalloidin A633 (Invitrogen), washed and mounted on slides using Dako mounting medium (Invitrogen). Samples were observed using a confocal microscopy with rotary disc (Roper Scientific®). Peripheral and ventral focal adhesion sizes (vinculin) were separated in three different categories (Small/None, Medium and Large) and the size of their focal adherences scored from three independent experiments. The focal adhesion size's distributions between the control and GFP-A483 transfected cells were compared using a Pearson's Chi-squared test.
Molecule,effect on cell migration / motility [1],ΔG free enthalpy [2],ΔH enthalpy [2],−TΔS entropic contribution [2],Kd ([2]; listed as A483 (VBS3)),Kd [2],stabilization of FA markers [3],increase in the number of adherent cells ([4]; adhesion tested after 30 min),increase in the number of adherent cells ([4]; after 60 seconds of incubation),number of cells which migrated across a matrigel [5],myotube formation [6],N (stoichiometry) ([2]; ITC non-linear fit),focal adhesions (FA) in transfected cells [7]
B1,strong effect on cell migration,-41.945 kJ/mol,-26.06 kJ/mol,-15.88 kJ/mol,0.0249 µM,0.0249 µM,stabilization of all FA markers studied,1.3 fold,5.6 fold,120 cells,"formed myotubes not only at high, but also at low substrate stiffness",,
B2,,-31.16 kJ/mol,-16.65 kJ/mol,-14.51 kJ/mol,,2.03 µM,,,,96 cells,,1.5,not observed

# Reference: US11040083B2, “Polypeptides comprising vinculin binding sites for the treatment of proliferation and/or adhesion related diseases” (PARIS SCIENCES ET LETTRES—QUARTIER LATIN, priority 2015, dated 2021)
